Experimental data: patent US5776892A, “Anti-inflammatory peptides” (Curative Health Services, Inc., priority 1994, dated 1998)
No end group written: not given here.

Legend:
Acute toxicity in mice = assay type: in vivo, mouse; conditions: intravenous 100, 500 or 1,000 mg/kg
Protocol: Acute toxicity of CT-112 (SEQ. ID NO: 1) in mice and rats was assessed. Mice were dosed by intravenous injection with CT-112 (SEQ. ID NO: 1) at 100, 500 or 1,000 mg/kg.

[1] = test system: DNCB-induced delayed-type hypersensitivity; experiment: Delayed-type hypersensitivity to DNCB, ear thickness; assay type: in vivo, mouse
Protocol: CT-112 (SEQ. ID NO: 1) was tested for its ability to modulate the immune response in a mouse model of delayed hypersensitivity (Filipp et al., 1984, Allergy, 39: 499-507; Diezel et al., 1989 J. Invest. Dermatol. 93:322-326). The mice used in this study were 8-wk old hairless females (Jackson Laboratories). The mice were sensitized to a contact allergen (1-chloro-2,4-dinitrobenzene, DNCB) by painting the dorsothoracic region twice daily for 5 consecutive days with 50 μl of 0.5% DNCB in 75% acetone:25% vegetable oil. The animals were allowed to rest for 24 hr prior to challenge with DNCB. On the sixth day after initiation of the sensitization treatments, the animals were challenged with 50 μl of DNCB solution applied to the left ear. After 24 hrs, the ear thickness was determined and compared to the unchallenged ear.
The treatment groups were as follows:
b) Prednisone (intraperitoneal injection of 25 mg/kg, 2 hr prior to challenge);
d) CT-112 (intraperitoneal injections of 60 mg/kg/injection at 3, 1, and 0.25 hr prior to challenge and 3, 6 and 21 hr post-challenge);
e) DMSO control (topical application of 50 μl at 3, 1 and 0.25 hr prior to challenge; and
f) CT-112 in DMSO (20 mg/ml, topical application of 50 μl at 3, 1, and 0.25 hr prior to challenge and 3, 6 and 21 hr post-challenge).

[2] = test system: carrageenan-induced peritonitis; experiment: Carrageenan-induced peritonitis, LTB4 and PGE2 in peritoneal lavage fluid; assay type: in vivo, mouse; conditions: 60 mg/kg/day; 24 hr post-challenge
Protocol: Mice (C57BL/6UAF, females, 12 weeks old) were implanted with Alzet mini pumps set to deliver 60 mg CT-112/kg/day. Six days post-implantation, the mice were challenged with an intraperitoneal injection of 0.3 ml of carrageenan in PBS (10 mg/ml). The peritoneal cavity was lavaged with 15 ml of Hank's Balanced Salt Solution (Ca^2+ - and Mg^2+ -free) at 24, 48 and 72 hr post-challenge. The lavage fluid was centrifuged (500 g, 5 min), fixed with LeukoStat fixative and stained with LeukoStat staining solution. The slides were analyzed under a microscope for the different types of inflammatory cells, such as macrophages, lymphocytes and neutrophils. At the 48-hr time point, 5 control mice were also lavaged. In a separate study, the peritoneal lavage fluid was analyzed for total leukotriene B4 (LTB4) and prostaglandin E2 (PGE2) content at 24 hr post-challenge (Griswold et al., 1991, Biochem. Pharmacol. 42(4):825-831).

neutrophils [3] = experiment: Neutrophil chemotaxis to f-Met-Leu-Phe (Neuroprobe chamber, fluorescence 530 nm); assay type: cell-based; conditions: 15 min pre-exposure; read at 1 hr; FIG. 3
Protocol: The ability of CT-112 (SEQ. ID NO: 1) to inhibit chemotaxis of neutrophils in response to a variety of agents was assessed using Neuroprobe chemotaxis chambers. For these assays, neutrophils were resuspended in Hank's balanced salt solution with Ca^2+ and Mg^2+ to give a 5×10^6 cells/ml suspension after the cells were labeled with 1',7'-bis(2-carboxyethyl)-5-(6)-carboxyfluorescein. The neutrophils were exposed to CT-112 (SEQ. ID NO: 1) for approximately 15 min prior to addition to the chemotaxis chambers. CT-112 (SEQ. ID NO: 1) was present in both the top and bottom of the chambers, and the chemoattractant, either f-Met-Leu-Phe, leukotriene B4 or interleukin-8, was added to the bottom of chamber. Cells which had migrated through the membrane were determined by fluorescence at 530 nm at 1 hr after initiation of the assay.

[4] = test system: mouse bone marrow polychromatic erythrocyte; conditions: in vivo
neutrophils [5] = assay type: cell-based
Excerpt: In addition, CT-112 (SEQ. ID NO: 1) was not cytotoxic to neutrophils, as determined by viability testing using trypan blue exclusion (FIG. 3).

Salmonella = Salmonella reverse mutation assay; assay type: cell-based; conditions: 100-5,000 μg/ml, with or without rat liver microsomal enzyme activation
Excerpt: The mutagenic potential of CT-112 (SEQ. ID NO: 1) has been assessed.

Acute toxicity in rats = assay type: in vivo, rat; conditions: rats, 100, 500 or 1,000 mg/kg
Protocol: Rats were dosed with CT-112 (SEQ. ID NO: 1) at 100, 500 or 1,000 mg/kg. […] All rats returned to normal appearance the day after treatment.

[6] = ip 60 mg/kg/injection at 3, 1, 0.25 hr prior and 3, 6, 21 hr post-challenge
[7] = topical 50 μl of 20 mg/ml in DMSO at 3, 1, 0.25 hr prior and 3, 6, 21 hr post-challenge

With “TTSQVRPR [CT-112, octapeptide derived from platelet factor 4]” the lesions at necropsy (Acute toxicity in mice) was “No lesions were visible at necropsy”, the “mean body weight and mean body weight gain vs control” value (Acute toxicity in mice) was “no statistical differences” and the clinical effects (Acute toxicity in mice; one mouse at 500 and two at 1,000 mg/kg, day of treatment) was “Minimal transient clinical effects (hypoactivity and hypersensitivity)”. For the same sequence, the “% Inhibition of Inflammation” value ([1]; 7-day pump, 60 mg/kg/24 hr) was 79.7%, the “Thickness Difference (Left-Right)” value ([1]; 7-day pump, 60 mg/kg/24 hr) was 0.00087 ± 0.000398 in and the “% Inhibition of Inflammation” value [1, 6] was 68.4%. For the same sequence, the “Thickness Difference (Left-Right)” value [1, 6] was 0.00169 ± 0.000643 in, the “% Inhibition of Inflammation” value [1, 7] was 18.2% and the “Thickness Difference (Left-Right)” value [1, 7] was 0.0035 ± 0.000408 in. For the same sequence, the “LTB4 (pg in peritoneal lavage)” value [2] was 16.8 ± 11.5 pg, the “PGE2 (pg in peritoneal lavage)” value [2] was 13.1 ± 6.9 pg and the “chemotactic migration of neutrophils to f-Met-Leu-Phe” value (neutrophils [3]) was “effectively inhibited”. For the same sequence, the micronuclei [4] was “did not induce a significant increase in micronuclei”, the “cytotoxicity to neutrophils (trypan blue exclusion)” value (neutrophils [5]) was “not cytotoxic” and the “number of revertants (histidine independent growth)” value (Salmonella) was “did not cause an increase in the number of revertants”. For the same sequence, the lesions at necropsy (Acute toxicity in rats) was “No lesions were visible at necropsy”, the “mean body weight and mean body weight gain vs control” value (Acute toxicity in rats) was “no statistical differences” and the clinical effects (Acute toxicity in rats; several rats at 500 and 1,000 mg/kg, day of treatment) was “Transient clinical effects (hypoactivity, hypersensitiviy, staggered gait, cyanosis and absence of righting reflex)”.
